The record followed here is patent US20220332804A1 (CSL INNOVATION, published 2022).

The target in this experiment is T1, Activated human C2 (huC2a) (human, UniProt P06681 244-752).
T1 construct: domain: C2a; also called human C2a
T1 sequence (looked up): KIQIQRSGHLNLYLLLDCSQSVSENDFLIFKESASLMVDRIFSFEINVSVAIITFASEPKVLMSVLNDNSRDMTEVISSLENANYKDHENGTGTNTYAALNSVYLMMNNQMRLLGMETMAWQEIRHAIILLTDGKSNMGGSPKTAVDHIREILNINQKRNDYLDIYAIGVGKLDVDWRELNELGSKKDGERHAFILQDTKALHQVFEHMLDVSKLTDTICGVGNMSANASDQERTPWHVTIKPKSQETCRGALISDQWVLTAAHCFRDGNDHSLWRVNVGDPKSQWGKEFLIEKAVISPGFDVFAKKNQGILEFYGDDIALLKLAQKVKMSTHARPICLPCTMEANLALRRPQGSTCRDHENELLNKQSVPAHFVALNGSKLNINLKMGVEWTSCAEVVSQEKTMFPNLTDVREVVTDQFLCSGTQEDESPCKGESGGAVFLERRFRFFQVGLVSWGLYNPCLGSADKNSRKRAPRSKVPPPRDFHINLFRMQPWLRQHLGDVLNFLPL
The experiment can be described thus: SPR, mAb captured, neutral and acidic pH, 0 to 2 mM CaCl2.

Experimental: Surface plasmon resonance (SPR, Biacore) was used for all binding affinity analyses. In brief, goat anti-human IgG was directly immobilised onto the carboxymethyl dextran surface of CM5 sensorchips to approximately 12,000 RU using standard NHS/EDC chemistry at pH 5. The immobilised antibody surface was pre-conditioned with ten injections of polyclonal human IgG (Privigen 60 s) prepared at 1 μg/mL. Ligands (anti-C2 mAbs) were captured at the beginning of each cycle as described below. An adjacent spot or flow cell in which only Polyclonal IgG was capture was used as a reference surface. The goat anti-human IgG Fc antibody surface was regenerate in 100 mM H3PO4, injected for 45 seconds at the end of each cycle. Experiments were performed at 37° C. and the flow rate of each experiment was kept constant at 30 μL/min.
The effect of calcium on antibody binding was determined with the addition of calcium chloride to the SPR running buffer. Calcium concentrations ranged from zero (i.e. no added calcium, control) to near physiological levels (0.02, 0.2 and 2 mM CaCl₂.2H₂O, MW 147.02 Da). […]
Purified human C2 zymogen was tested in physiological conditions (pH 7.3) at concentrations ranging from 1.9 to 500 nM and in acidic conditions (pH 6) at concentrations ranging from 3.9 to 2000 nM. […] Analyte association and dissociation were monitored for 180 and 600 seconds, respectively. […]

B1: RF16-226 (antibody)
heavy: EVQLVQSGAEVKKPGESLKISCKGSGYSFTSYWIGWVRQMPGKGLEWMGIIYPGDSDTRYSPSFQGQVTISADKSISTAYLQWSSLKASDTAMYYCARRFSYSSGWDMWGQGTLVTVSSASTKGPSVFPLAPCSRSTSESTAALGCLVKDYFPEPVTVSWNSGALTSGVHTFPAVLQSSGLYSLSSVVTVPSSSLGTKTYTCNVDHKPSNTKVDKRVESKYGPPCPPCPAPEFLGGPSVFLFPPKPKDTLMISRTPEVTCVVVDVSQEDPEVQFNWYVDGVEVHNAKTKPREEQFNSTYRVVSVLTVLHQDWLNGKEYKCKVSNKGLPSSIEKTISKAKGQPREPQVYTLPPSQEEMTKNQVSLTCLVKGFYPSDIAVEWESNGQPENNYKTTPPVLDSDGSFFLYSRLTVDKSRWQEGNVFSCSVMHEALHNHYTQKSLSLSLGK
light: SYELTQPPSVSVSPGQTARITCSGDALTSKYVAWYQQKSGLAPLLVIYEDTRRPSGIPAKFSGSSSGSVATLTISGAHGDDEADYYCYSTDASGHQRVFGGGTKLTVLSQPKAAPSVTLFPPSSEELQANKATLVCLISDFYPGAVTVAWKADGSPVKAGVETTKPSKQSNNKYAASSYLSLTPEQWKSHRSYSCQVTHEGSTVEKTVAPTECS
For the molecule B1, the binding result is “no binding”.
